According to US20060165683A1, “Methods and compositions for control of bone formation via modulation of sympathetic tone” (priority 2001, published 2006):
“Also recorded” adds a separate entry of the source.

Columns and labels:
[1] = tested on: human SaOS-2 osteoblastic cells; assay: cAMP production in human SaOS-2 osteoblastic cells; assay type: cell-based; conditions: SaOS-2, 100 μM IBMX, 5 min treatment
Description: Primary osteoblast cultures were established as previously described (see, e.g., Ducy et al., 2000, Cell 100: 197-207) and maintained in αMEM/0.1 mg/ml ascorbic acid supplemented with 10% FBS. SaOS-2 were grown in MEM/10% FBS. For cAMP assay confluent cultures were incubated with serum free medium containing 100 μM IBMX (3-isobutyl-1-methylxanthine, Sigma) for 8 minutes before PBS, PTH(1-34) (Bachem), isoproterenol, norepinephrine, phenylephrine (Sigma) or propranolol were added for 5 min. Intracellular cAMP concentration was measured by immunoassay (R&D Systems). For gene expression analyses, primary osteoblasts were treated for 72 hours with appropriate drugs in 0.1% FBS. Hormone serum levels were quantified using immunoassays kits from Peninsula Laboratories (Insulin) or Alpco Diagnostics (leptin). Deoxypyridinoline cross-links and Creatinine were measured in morning urines using the Quidel kits. a1(I) leptin bioactivity was verified by cotransfection of 293 cells expressing ObRb with a STAT3-responsive-luc reporter construct, pSVβgal plasmid and a1(I) leptin expression vector or mock. Twenty-four hours later luciferase and β-galactosidase activities were measured. Data represents ratios of luciferase/β-galactosidase activities, and values are mean of 6 independent transfection experiments.
For a sympathetic regulation of bone formation to exist several requirements have to be fulfilled. The first one is that functional adrenergic receptors are present on osteoblasts. […] No other adrenergic receptor subtype could be detected. […] Thus, to assess the biologic relevance of the presence of β2-adrenergic receptors on osteoblasts, these cells were treated with isoproterenol, a β-adrenergic agonist, alone or in the presence of propranolol, a β-adrenergic receptor antagonist; with norepinephrine, the natural ligand of β-adrenergic receptors; with phenylephrine, an α-adrenergic agonist or with vehicle and measured cAMP production. […]

[2] = tested on: osteoblasts in calvariae of newborn mice; assay: In vivo osteoblast proliferation assay (BrdU labeling, calvariae); set-up: species or system mouse; conditions: newborn wt mice treated daily for 5 days; 40 μg isoproterenol or 4 μg dexamethasone
Description: Specimens were embedded in paraffin and sectioned at 6 μm. Brains were stained with 0.1% cresyl violet using standard procedures. Immunohistochemistry was performed according to standard protocols (see, e.g., Ausubel, 1995, Current Protocols in Molecular Biology, New York). […] BrdU incorporation was detected by immunohistochemistry using Zymed BrdU staining kit (Zymed Laboratories Inc.). Four pups per treatment were analyzed and 10 calvariae sections were counted per animal. NovaRED was used as a chromogenic peroxidase substrate. Sections were counterstained with hematoxylin.

[3] = tested on: propranolol-treated wt mice; assay: Leptin ICV infusion in propranolol-treated mice; assay type: in vivo, mouse; conditions: centrally delivered leptin
Description: (§1) Wildtype (C57BL/6J) and mutant (C57BL/6J A^y/a, C57BL/6J ob/ob) mice were obtained from the Jackson laboratory and adrenal medullectomized mice from Harlan Tecklad laboratory. Dbh−/− mice were rescued as previously described (Thomas et al., 1998, Neurochem 70:2468-2476). Isoproterenol (Sigma) was injected intraperitoneally (ip) once daily for 6 weeks at 30 mg/kg (wt) or 3 mg/kg (ob/ob). Propranolol (Sigma) was added to the drinking water at a concentration of 0.5 g/l. For ICV infusion, a 28-gauge cannula (Brain infusion kit II, Alza) was implanted into the third ventricle as previously described infusing human leptin (Sigma) at 8 ng/hr or MT-II at 125 ng/hr (Phoenix Pharmaceuticals) for 28 days (see, e.g., Ducy et al., 2000, Cell 100: 197-207). The cannula was connected to an osmotic pump (Alza) placed in the dorsal subcutaneous space of the animal. For parabiosis longitudinal incisions were made in the skin and in the peritoneal cavity along one side on each mouse. Edges of the incisions were connected by suture to induce coelioanastomosis. Cross-circulation was quantified by injecting 1 ml/kg 0.25% Evans blue into the tail vein of one mouse of the parabiosed pair. After 30 min. blood was collected from both mice by retroorbital bleeding and the blood exchange rate was calculated according to standard techniques (see, e.g., Harris & Martin, 1984, Am J Physiol 247:R380-386). […]

MSG-lesioned ob/ob mice = assay: Leptin ICV infusion in MSG-lesioned ob/ob mice; assay type: in vivo, mouse
Description: as §1

wildtype mice = assay: Central (ICV) infusion of leptin in wildtype mice; assay type: in vivo, mouse
Description: as §1

A^y/a mice = assay: Leptin ICV infusion in A^y/a mice; assay type: in vivo, mouse
Description: Wildtype (C57BL/6J) and mutant (C57BL/6J A^y/a, C57BL/6J ob/ob) mice were obtained from the Jackson laboratory and adrenal medullectomized mice from Harlan Tecklad laboratory. Dbh−/− mice were rescued as previously described (Thomas et al., 1998, Neurochem 70:2468-2476). Isoproterenol (Sigma) was injected intraperitoneally (ip) once daily for 6 weeks at 30 mg/kg (wt) or 3 mg/kg (ob/ob). Propranolol (Sigma) was added to the drinking water at a concentration of 0.5 g/l. For ICV infusion, a 28-gauge cannula (Brain infusion kit II, Alza) was implanted into the third ventricle as previously described infusing human leptin (Sigma) at 8 ng/hr or MT-II at 125 ng/hr (Phoenix Pharmaceuticals) for 28 days (see, e.g., Ducy et al., 2000, Cell 100: 197-207). The cannula was connected to an osmotic pump (Alza) placed in the dorsal subcutaneous space of the animal. For parabiosis longitudinal incisions were made in the skin and in the peritoneal cavity along one side on each mouse. Edges of the incisions were connected by suture to induce coelioanastomosis. Cross-circulation was quantified by injecting 1 ml/kg 0.25% Evans blue into the tail vein of one mouse of the parabiosed pair. After 30 min. blood was collected from both mice by retroorbital bleeding and the blood exchange rate was calculated according to standard techniques (see, e.g., Harris & Martin, 1984, Am J Physiol 247:R380-386). […] Two weeks after parabiosis a pump delivering leptin ICV in one animal of each pair was implanted. For GTG lesioning, 4-week-old C57BL/6J mice were given a single ip injection of either PBS or GTG (0.5 mg/g). For MSG lesioning, 2 day-old C57BL/6J pups were injected daily subcutaneously with either PBS or MSG (2 mg/g) for 10 days.

**Q.** What does the source list for `CC(C)NCC(O)c1ccc(O)c(O)c1` (stereo not shown) [isoproterenol]?
**A.** cAMP production [1]: induced; number of BrdU positive cells in calvariae compared to control mice (osteoblast proliferation) [2]: nearly two-fold reduction

B1: leptin: polypeptide hormone, product of the ob gene; human leptin (Sigma) infused ICV (protein)
chain: VPIQKVQDDTKTLIKTIVTRINDISHTQSVSAKQRVTGLDFIPGLHPILSLSKMDQTLAVYQQVLTSLPSQNVLQIANDLENLRDLLHLLAFSKSCSLPQTSGLQKPESLDGVLEASLYSTEVVALSRLQGSLQDILQQLDVSPEC
**Q.** For B1, which bone mass [3] is on record?
**A.** The bone mass was “did not affect”.

**Q.** And the fat pads [3]?
**A.** The fat pads was “disappearance”.

**Q.** What about the Bone Volume (MSG-lesioned ob/ob mice) of the same molecule?
**A.** Its Bone Volume is “decreases”.

**Q.** And the body weight (MSG-lesioned ob/ob mice)?
**A.** Its body weight is “does not affect”.

**Q.** What about the “bone mass / bone volume and bone formation parameters” value (wildtype mice) of the same molecule?
**A.** Its value is “decreased”.

**Q.** And the body weight (A^y/a mice; ICV infusion)?
**A.** Its body weight is “without affecting”.

**Q.** What about the bone formation rate (A^y/a mice; long-term ICV infusion) of the same molecule?
**A.** The bone formation rate was “decrease”.

**Q.** What about the “bone mass / bone volume” value (A^y/a mice; long-term ICV infusion) of the same molecule?
**A.** The value was “significant decrease; also recorded: decreased”.
